Data taken from PMC7615710 (2023).

Legend:
[1] = biological target: T1, ASPP2 C-terminal domain (CTD), tag cleaved (UniProt Q13625 925-1128); experiment: ITC
T1 chain: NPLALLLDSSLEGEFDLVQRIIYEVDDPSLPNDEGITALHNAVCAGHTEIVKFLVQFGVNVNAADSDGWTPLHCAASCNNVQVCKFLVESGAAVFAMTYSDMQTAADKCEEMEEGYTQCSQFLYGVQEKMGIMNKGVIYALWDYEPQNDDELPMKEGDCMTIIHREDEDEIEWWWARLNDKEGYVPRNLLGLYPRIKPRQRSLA

[2] = biological target: T2, ASPP1 C-terminal domain (CTD), tag cleaved (UniProt Q96KQ4 887-1090); experiment: ITC
T2 chain: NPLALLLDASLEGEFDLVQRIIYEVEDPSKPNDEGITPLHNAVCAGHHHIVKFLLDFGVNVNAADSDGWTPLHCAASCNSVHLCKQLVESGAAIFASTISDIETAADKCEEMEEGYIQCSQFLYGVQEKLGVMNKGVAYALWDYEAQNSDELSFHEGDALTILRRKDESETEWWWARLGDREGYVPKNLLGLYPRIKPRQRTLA

Question: Which results are given for LPPPKKAPTPPPRRRRTVGL [NS5A PRR peptide of HCV strain JFH-1 (20 aa)]?
Answer: Kd [1]: 42.4 nM; Kd [2]: 3780 nM
